Experimental data as given in patent publication US20240117019A1.

What was measured:
[1] = target: PhtD 1-170 (Streptococcus pneumoniae); test: ELISA on coated MBP-PhtD fragment, OD405
[2] = target: PhtD 1-343 (Streptococcus pneumoniae); test: ELISA on coated MBP-PhtD fragment, OD405
[3] = target: PhtD 168-343 (Streptococcus pneumoniae); test: ELISA on coated MBP-PhtD fragment, OD405
[4] = target: recombinant His-tagged full-length pneumococcal histidine triad protein D (PhtD) from strain TCH8431 (serotype 19A) (Streptococcus pneumoniae strain TCH8431 (serotype 19A)); test: ELISA on coated recombinant PhtD, OD405
[5] = target: recombinant His-tagged full-length pneumococcal histidine triad protein D (PhtD) from strain TCH8431 (serotype 19A) (Streptococcus pneumoniae strain TCH8431 (serotype 19A)); test: ELISA on coated recombinant PhtD, non-linear regression fit
[6] = target: PhtD, WU2 (3) (Streptococcus pneumoniae); test: flow cytometry on whole bacteria, 3 (WU2), mAb 10 µg/ml, APC anti-human IgG Fc; no mAb 1.3
[7] = target: PhtD protein of pneumococcal strain TIGR4 (serotype 4), native, in bacterial lysates (Streptococcus pneumoniae strain TIGR4 (serotype 4)); test: flow cytometry on whole bacteria, 4 (TIGR4), mAb 10 µg/ml, APC anti-human IgG Fc; no mAb 0.1
[8] = target: PhtD, serotype 2 (Streptococcus pneumoniae); test: flow cytometry on whole bacteria, serotype 2, mAb 10 µg/ml, APC anti-human IgG Fc; no mAb 0.6
[9] = target: PhtD, serotype 6C (Streptococcus pneumoniae); test: flow cytometry on whole bacteria, serotype 6c, mAb 10 µg/ml, APC anti-human IgG Fc; no mAb 1.3
[10] = target: PhtD, serotype 6D (Streptococcus pneumoniae); test: flow cytometry on whole bacteria, serotype 6d, mAb 10 µg/ml, APC anti-human IgG Fc; no mAb 0.4
[11] = target: PhtD, serotype 9N (Streptococcus pneumoniae); test: flow cytometry on whole bacteria, serotype 9N, mAb 10 µg/ml, APC anti-human IgG Fc; no mAb 1.5
[12] = target: PhtD, serotype 11A (Streptococcus pneumoniae); test: flow cytometry on whole bacteria, serotype 11A, mAb 10 µg/ml, APC anti-human IgG Fc; no mAb 0.6
[13] = target: PhtD, serotype 12F (Streptococcus pneumoniae); test: flow cytometry on whole bacteria, serotype 12F, mAb 10 µg/ml, APC anti-human IgG Fc; no mAb 0.3
[14] = target: PhtD protein of pneumococcal strain TCH8431 (serotype 19A), native, in bacterial lysates (Streptococcus pneumoniae strain TCH8431 (serotype 19A)); test: flow cytometry on whole bacteria, 19A (TCH8431), mAb 10 µg/ml, APC anti-human IgG Fc; no mAb 0.4
[15] = target: recombinant His-tagged full-length pneumococcal histidine triad protein D (PhtD) from strain TCH8431 (serotype 19A) (Streptococcus pneumoniae strain TCH8431 (serotype 19A)); test: competitive BLI, His-tagged PhtD on anti-penta-HIS tips; first mAb PhtD6, then second mAb, each 100 µg/mL; grey cell
[16] = target: recombinant His-tagged full-length pneumococcal histidine triad protein D (PhtD) from strain TCH8431 (serotype 19A) (Streptococcus pneumoniae strain TCH8431 (serotype 19A)); test: competitive BLI, His-tagged PhtD on anti-penta-HIS tips; first mAb PhtD3, then second mAb, each 100 µg/mL; black cell
[17] = target: recombinant His-tagged full-length pneumococcal histidine triad protein D (PhtD) from strain TCH8431 (serotype 19A) (Streptococcus pneumoniae strain TCH8431 (serotype 19A)); test: competitive BLI, His-tagged PhtD on anti-penta-HIS tips; first mAb PhtD7, then second mAb, each 100 µg/mL; white cell
[18] = target: recombinant His-tagged full-length pneumococcal histidine triad protein D (PhtD) from strain TCH8431 (serotype 19A) (Streptococcus pneumoniae strain TCH8431 (serotype 19A)); test: competitive BLI, His-tagged PhtD on anti-penta-HIS tips; first mAb PhtD8, then second mAb, each 100 µg/mL; white cell

B1: human monoclonal antibody PhtD3 (antibody, V domains shown)
VH: QVQLVQSGPDVKKPGSSVKVSCKASGAAFESFAFAWVRQAPGQGFEWMGRIIPILETRDYAEKFQGRMTMTTDESTATAYMELNSLRFEDTAVYFCARDGHIMRTTLSDAALDVWGQGTTVIVSS
VL: DIVMTQSPVTLSLSPGERATLSCRASQSLTDNYLAWYQQKPGQAPRLLIYAASTRATGIPDRISGSGSGTDFTLTISRVEPEDFAMFYCQQYQNSPFTFGGGTTVEIK
- EC50 (read off the curve) [1]: 0.1 µg/mL
- EC50 (read off the curve) [2]: 0.1 µg/mL
- EC50 (read off the curve) [3]: 0.1 µg/mL
- EC50 (read off the curve) [4]: 0.1 µg/mL
- EC50 [5]: 0.045 µg/mL
- % APC+ [6]: 16%
- % APC+ [7]: 7.2%
- % APC+ [8]: 3.2%
- % APC+ [9]: 4.2%
- % APC+ [10]: 2.4%
- % APC+ [11]: 28.1%
- % APC+ [12]: 19.6%
- % APC+ [13]: 45.8%
- % APC+ [14]: 18.3%
- percent binding of the second mAb in the presence of the first mAb [15]: 47%
- percent binding of the second mAb in the presence of the first mAb [16]: 9%
- percent binding of the second mAb in the presence of the first mAb [17]: 81%
- percent binding of the second mAb in the presence of the first mAb [18]: 77%

B2: PhtD3-IgG2a (recombinant chimera of mAb PhtD3 with a mouse IgG2a Fc region) (antibody, V domains shown)
VH: B1 VH
VL: B1 VL
- EC50 (read off the curve) [4]: 0.05 µg/mL
